# Results published in patent US20240069033A1 (Chugai, published 2024).
# No end group written: not given here. puromycin linker = puromycin spacer joining the C-terminus of the translated peptide to its mRNA (mRNA display); mRNA = not defined here
# T1: biotinylated splitNanoluc1-8
# T1 chain: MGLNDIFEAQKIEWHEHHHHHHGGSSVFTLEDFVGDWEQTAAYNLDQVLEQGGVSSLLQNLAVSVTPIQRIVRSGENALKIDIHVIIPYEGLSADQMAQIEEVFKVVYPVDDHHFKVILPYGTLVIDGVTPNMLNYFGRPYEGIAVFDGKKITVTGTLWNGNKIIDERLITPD
# How the values were obtained:
# [1] = biological target: T1, biotinylated splitNanoluc1-8; experiment: mRNA display pull-down with biotinylated splitNanoluc1-8 on streptavidin beads, qPCR
# Protocol: (§1) Each Display molecule before reacting with biotinylated splitNanoluc1-8 was also subjected to qPCR in the same way, and the input nucleic acid amount was calculated.
# [2] = biological target: T1, biotinylated splitNanoluc1-8; experiment: mRNA display pull-down with biotinylated splitNanoluc1-8, qPCR
# Protocol: as §1
Binder,binding result [1],fold lower recovery rate than the splitNanoluc9-10 fusion peptide [2] [times]
"MVSGWRLFKKISGSGSGSGSENLYFQGKK-{puromycin linker-mRNA} (reading uncertain; also: mRNA reverse transcribed before assay, mRNA display molecule) [splitNanoluc-10]",no binding,≥ 300
"MGSMLFRVTINSGSGSGSGSENLYFQGKK-{puromycin linker-mRNA} (reading uncertain; also: mRNA reverse transcribed before assay, mRNA display molecule) [splitNanoluc-9]",no binding,≥ 300
